Consider seven substances from patent publication US9199234.

For assay [1], the target named is Chorionic Gonadotropin (CG) (UniProt P01215). Briefly: FRET quenching titration in solution: BHQ-10-labelled antibody, Alexa-Fluor 488-labelled antigen.
Assay [2] deals with Follicle Stimulating Hormone (FSH) (UniProt P01215). The assay is described as above.
The target in assay [3] is Luteinizing Hormone (LH) (UniProt P01215). Described as above.
Assay [4] addresses Thyroid Stimulating Hormone (TSH) (UniProt P01215). The assay is described as above.
The target is the same in assay [5]. As to the kind of experiment: i-STAT sandwich immunoassay, recombinant TSH; row antibody on capture beads; detection ALP conjugate: 5409.
Assay [6] shares this target. Briefly: i-STAT sandwich immunoassay, recombinant TSH; row antibody on capture beads; detection ALP conjugate: T25C.
Assay [7] has the same target. Briefly: i-STAT sandwich immunoassay, recombinant TSH; row antibody on capture beads; detection ALP conjugate: ME130.
The target is the same in assay [8]. As to the kind of experiment: i-STAT sandwich immunoassay, recombinant TSH; row antibody on capture beads; detection ALP conjugate: TSH Ab 544.
Assay [9] has the same target. Briefly: FRET competition on Alexa-488-labelled antigen (taken as TSH); excess unlabelled antibody first; competitor: BHQ-labelled M4.
Assay [10] has the same target. As to the kind of experiment: FRET competition on Alexa-488-labelled antigen (taken as TSH); excess unlabelled antibody first; competitor: BHQ-labelled 414B.
Assay [11] has the same target. As to the kind of experiment: FRET competition on Alexa-488-labelled antigen (taken as TSH); excess unlabelled antibody first; competitor: BHQ-labelled 5409.
For assay [12] the target is unchanged. As to the kind of experiment: FRET competition on Alexa-488-labelled antigen (taken as TSH); excess unlabelled antibody first; competitor: BHQ-labelled T25C.
Assay [13] has the same target. As to the kind of experiment: FRET competition on Alexa-488-labelled antigen (taken as TSH); excess unlabelled antibody first; competitor: BHQ-labelled ME130.
Assay [14] shares this target. As to the kind of experiment: FRET competition on Alexa-488-labelled antigen (taken as TSH); excess unlabelled antibody first; competitor: BHQ-labelled TSH Ab 544.
Assay [15] shares this target. Briefly: i-STAT sandwich immunoassay, recombinant TSH; row antibody on capture beads; detection ALP conjugate: M4.
For assay [16], the target named is Chorionic Gonadotropin (CG) (UniProt P01215). As to the kind of experiment: i-STAT sandwich, 0.4 mIU/L TSH spiked with CG, signal increase over TSH alone; capture: row antibody; detection conjugate: T25C.
Assay [17] concerns the target Luteinizing Hormone (LH) (UniProt P01215). As to the kind of experiment: i-STAT sandwich, 0.4 mIU/L TSH spiked with LH, signal increase over TSH alone; capture: row antibody; detection conjugate: T25C.
Assay [18] has as its target Chorionic Gonadotropin (CG) (UniProt P01215). Briefly: i-STAT sandwich, 0.4 mIU/L TSH spiked with CG, signal increase over TSH alone; capture: row antibody; detection conjugate: ME130.
In assay [19] the target is Follicle Stimulating Hormone (FSH) (UniProt P01215). As to the kind of experiment: i-STAT sandwich, 0.4 mIU/L TSH spiked with FSH, signal increase over TSH alone; capture: row antibody; detection conjugate: T25C.
In assay [20] the target is Luteinizing Hormone (LH) (UniProt P01215). As to the kind of experiment: i-STAT sandwich, 0.4 mIU/L TSH spiked with LH, signal increase over TSH alone; capture: row antibody; detection conjugate: ME130.
The target of assay [21] is Follicle Stimulating Hormone (FSH) (UniProt P01215). Briefly: i-STAT sandwich, 0.4 mIU/L TSH spiked with FSH, signal increase over TSH alone; capture: row antibody; detection conjugate: ME130.
The target of assay [22] is Chorionic Gonadotropin (CG) (UniProt P01215). Briefly: i-STAT sandwich, 0.4 mIU/L TSH spiked with CG, signal increase over TSH alone; capture: row antibody; detection conjugate: 5409.
Assay [23] addresses Luteinizing Hormone (LH) (UniProt P01215). Briefly: i-STAT sandwich, 0.4 mIU/L TSH spiked with LH, signal increase over TSH alone; capture: row antibody; detection conjugate: 5409.
Assay [24] addresses Follicle Stimulating Hormone (FSH) (UniProt P01215). Briefly: i-STAT sandwich, 0.4 mIU/L TSH spiked with FSH, signal increase over TSH alone; capture: row antibody; detection conjugate: 5409.
Assay [25] concerns the target Luteinizing Hormone (LH) (UniProt P01215). Briefly: i-STAT LH-detecting cartridge (LH 5304 capture beads, 414B conjugate); polystyrene LH 5304 scavenger beads in the sample; signal without beads = 100%.
Assay [26] deals with Chorionic Gonadotropin (CG) (UniProt P01215). As to the kind of experiment: i-STAT sandwich, 0.4 mIU/L TSH spiked with CG, signal increase over TSH alone; capture: row antibody; detection conjugate: TSH Ab 544.
For assay [27], the target named is Luteinizing Hormone (LH) (UniProt P01215). Briefly: i-STAT sandwich, 0.4 mIU/L TSH spiked with LH, signal increase over TSH alone; capture: row antibody; detection conjugate: TSH Ab 544.
Assay [28] addresses Follicle Stimulating Hormone (FSH) (UniProt P01215). As to the kind of experiment: i-STAT sandwich, 0.4 mIU/L TSH spiked with FSH, signal increase over TSH alone; capture: row antibody; detection conjugate: TSH Ab 544.
In assay [29] the target is Thyroid Stimulating Hormone (TSH) (UniProt P01215). As to the kind of experiment: i-STAT sandwich immunoassay, recombinant TSH; row antibody on capture beads; detection ALP conjugate: 414B.
Assay [30] addresses Chorionic Gonadotropin (CG) (UniProt P01215). Briefly: i-STAT sandwich, 0.4 mIU/L TSH spiked with CG, signal increase over TSH alone; capture: row antibody; detection conjugate: 414B.
The target in assay [31] is Luteinizing Hormone (LH) (UniProt P01215). Briefly: i-STAT sandwich, 0.4 mIU/L TSH spiked with LH, signal increase over TSH alone; capture: row antibody; detection conjugate: 414B.
Assay [32] addresses Follicle Stimulating Hormone (FSH) (UniProt P01215). As to the kind of experiment: i-STAT sandwich, 0.4 mIU/L TSH spiked with FSH, signal increase over TSH alone; capture: row antibody; detection conjugate: 414B.

As a reminder, the Kd is the concentration at which binding is half-saturated.

Turning to “Fitzgerald 10C-CR2151M4 mouse monoclonal antibody”, the Kd is 554 nM in [1], 210 nM in assay [2], 300 nM with Luteinizing Hormone (LH) [3] and 0.18 nM in [4]. Also, the electrochemical current of sandwich immunoassay turned out to be 20.7 nA in assay [5], 22.5 nA in [6], 39.9 nA in [7] and 0 nA in assay [8]. The relative fluorescence in assay [9] was 1; in assay [10] it was 0.9; in assay [11], 0.94; in [12] it was 0.74; in assay [13], 0.76; in assay [14], 0.98.

As for “TSH capture mouse monoclonal antibody Biospacific Cat#5409 SPTNE-5”, the Kd in assay [1] was 500 nM; in assay [2], 1000 nM; in the assay with Luteinizing Hormone (LH) [3], 1000 nM; in [4], 0.1 nM. For the same substance, the electrochemical current of sandwich immunoassay in assay [15] was found to be 15.2 nA; in assay [6] it was 34.6 nA; in [7], 53.6 nA; in [8], 1.41 nA. In addition, the CG CR (%) in assay [16] was determined as 0.96%; in assay [18], 0.78%. The LH CR (%) with Luteinizing Hormone (LH) [17] was 3.76%; with Luteinizing Hormone (LH) [20], 10.1%. In addition, the relative fluorescence came to 0.9 in [9]; 0.88 in assay [10]; 1 in assay [11]; 0.78 in assay [12]; 0.78 in assay [13]; 0.93 in assay [14]. For the same substance, the FSH CR (%) in assay [19] was determined as 0.65%; in [21], 2.43%.

Take AbCAM ME-130 mouse monoclonal antibody: the Kd came to 45 nM in assay [1], 70 nM in assay [2], 54 nM with Luteinizing Hormone (LH) [3] and 0.04 nM in assay [4]. Besides, the electrochemical current of sandwich immunoassay in assay [15] was 50.5 nA; in [5] it was 54.7 nA; in [6], -0.1 nA; in assay [8], 10.8 nA. Also, the CG CR (%) in [22] was 11.8%. In the assay with Luteinizing Hormone (LH) [23], this substance showed an LH CR (%) of 11.1%. The relative fluorescence was 0.77 in assay [9]; 0.99 in assay [10]; 0.82 in assay [11]; 0.88 in [12]; 1 in [13]; 0.82 in assay [14]. The substance also displayed an FSH CR (%) in [24] of 3.9%.

For “Biospacific LH 5304 monoclonal antibody (mus beta-LH, Catalog #5304 SP-5)”, in the assay with Luteinizing Hormone (LH) [25], the signal remaining after scavenger beads (%) turned out to be 4%.

“Seradyn anti-alpha-LH monoclonal antibody (Seradyn, Cat#MIT0414B)”: the Kd in assay [1] stood at 0.05 nM; in assay [2], 0.1 nM; with Luteinizing Hormone (LH) [3], 0.05 nM; in [4], 0.04 nM. For the same substance, the electrochemical current of sandwich immunoassay in [15] amounted to 41.3 nA; in assay [5] it was 40.3 nA; in assay [8], 10.2 nA. In addition, the CG CR (%) in assay [22] stood at 84.6%; in assay [26] it was 39.2%. Also, the LH CR (%) in the assay with Luteinizing Hormone (LH) [23] was determined as 348%; with Luteinizing Hormone (LH) [27], 467%. In addition, the relative fluorescence in assay [9] amounted to 0.75; in assay [10], 1; in assay [11] it was 0.81; in assay [12], 0.76; in assay [13], 0.86; in assay [14], 0.83. Further, the FSH CR (%) in assay [24] stood at 260%; in [28], 219%.

Take “signaling mouse monoclonal antibody Fitzgerald Cat#10-T25C”: the Kd in assay [1] worked out at 40 nM; in assay [2] it was 300 nM; with Luteinizing Hormone (LH) [3] it was 35 nM; in [4], 0.08 nM. Also, the electrochemical current of sandwich immunoassay in [15] amounted to 40.9 nA; in [29] it was 0.82 nA; in assay [5] it was 49.7 nA; in assay [7], 0.68 nA; in [8], 0.83 nA. The CG CR (%) in assay [22] worked out at 13.7%. In the assay with Luteinizing Hormone (LH) [23], this substance showed an LH CR (%) of 9.89%. In addition, the relative fluorescence in assay [9] was determined as 0.92; in assay [10], 0.97; in [11], 0.95; in assay [12], 1; in assay [13], 0.97; in assay [14], 0.97. Further, the FSH CR (%) in assay [24] is 6.25%.

In the case of “TSH Antibody 544 (Abbott Diagnostics Division)”, the Kd in [1] was 210 nM; in [2], 1000 nM; with Luteinizing Hormone (LH) [3], 1000 nM; in assay [4], 1.31 nM. Also, the electrochemical current of sandwich immunoassay in assay [15] came out at 0.11 nA; in assay [29] it was 25 nA; in assay [5] it was 7.98 nA; in assay [6], 22.4 nA; in assay [7], 34.9 nA. The substance also came in with a CG CR (%) in assay [30] of 117%. Also, the LH CR (%) with Luteinizing Hormone (LH) [31] is 11.8%. The relative fluorescence in assay [9] was found to be 0.92; in assay [10], 0.89; in assay [11], 0.96; in assay [12] it was 0.71; in [13], 0.72; in assay [14], 1. Also, in assay [32], the FSH CR (%) amounted to 7.15%.
